Experiment [1] concerns the target human Axl on the cell surface (HUVEC, A549, H1299, Baf3Axl cells) (human, UniProt P30530 26-894). The experiment in a line: FACS on HUVEC; cells treated with antibody, then Gas6; blocked ligand Gas6 detected with biotinylated anti-Gas6 and streptavidin-PE.
The target in experiment [2] is T1, human Tyro3-Fc (human, UniProt Q06418 41-428).
T1 construct: not shown: Fc part not described
T1 sequence (looked up): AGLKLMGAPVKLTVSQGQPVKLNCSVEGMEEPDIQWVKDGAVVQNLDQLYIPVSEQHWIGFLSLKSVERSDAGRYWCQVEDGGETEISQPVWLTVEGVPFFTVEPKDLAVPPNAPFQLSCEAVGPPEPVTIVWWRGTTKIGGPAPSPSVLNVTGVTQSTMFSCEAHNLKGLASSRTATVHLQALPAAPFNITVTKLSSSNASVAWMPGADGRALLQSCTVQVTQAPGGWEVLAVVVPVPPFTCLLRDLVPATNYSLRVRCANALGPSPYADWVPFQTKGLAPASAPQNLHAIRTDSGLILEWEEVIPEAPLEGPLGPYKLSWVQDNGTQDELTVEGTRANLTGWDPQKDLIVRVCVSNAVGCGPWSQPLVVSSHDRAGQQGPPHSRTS
Nature of the experiment: ELISA; receptor-Fc captured on anti-human IgG Fc coated plate. How it is done:
(§1) Plates were coated with anti-human IgG Fc, and then incubated with human Axl, Mer, Tyro3 Fcs, mouse or cynomolgus AxlFcs. […] FIG. 7D: ELISA. Plates were coated with anti-human IgG Fc and incubated with human Axl-Fc. […] FIG. 7E: FACS. […] A549 cells were incubated with 1 μg/mlYW327.6S2 for indicated time, and cell surface Axl expression was determined by FACS (upper panel), and total protein expression by Western Blotting analysis (lower panel). […] Phosphorylated Axl was measured by ELISA (upper panel), and phosphorylated Akt by Western Blotting analysis (lower panel). […] Cell viability was measured by CellTiter Glo assay.
(§2) ELISA assays were performed as follows: goat anti-human IgG Fc coated plates were blocking with 0.5% BSA, PBS, 0.05% Tween 20 (PBST). For cross reaction assay, coated plates were incubated with human Axl.Fc, mouse Axl.Fc or human Mer.Fc, Tyro-3.Fc for 1 hr at room temperature, washed four times in PBST, incubated with anti-Axl mAbs and HRP-conjugated anti-mouse Ig. […] Plates were washed four times in PBST, incubated with biotinylated anti-mGas6 and strepavidin-HRP. Secreted Ang-2 and DKK3 was measured using R&D ELISA kit, according to the manufacturer's instruction.
A general note: An ELISA detects its analyte on a solid surface through an enzyme-linked reagent.

Experiment [3] addresses T2, human Mer-Fc (human, UniProt Q12866 26-499).
T2 construct: not shown: Fc part not described
T2 sequence (looked up): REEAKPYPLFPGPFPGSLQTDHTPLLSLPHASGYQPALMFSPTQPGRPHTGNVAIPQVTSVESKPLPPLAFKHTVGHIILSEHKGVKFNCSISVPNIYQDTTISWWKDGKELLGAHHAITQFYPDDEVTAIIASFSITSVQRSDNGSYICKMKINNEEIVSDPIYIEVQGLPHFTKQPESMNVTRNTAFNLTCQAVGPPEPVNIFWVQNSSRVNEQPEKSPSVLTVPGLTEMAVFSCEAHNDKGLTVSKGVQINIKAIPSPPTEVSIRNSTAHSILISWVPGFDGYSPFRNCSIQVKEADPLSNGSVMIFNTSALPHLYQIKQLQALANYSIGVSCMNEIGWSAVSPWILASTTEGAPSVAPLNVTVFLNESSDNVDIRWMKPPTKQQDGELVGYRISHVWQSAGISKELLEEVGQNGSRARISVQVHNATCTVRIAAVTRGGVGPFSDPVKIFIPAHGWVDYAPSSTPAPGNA
The description is as above. How it is done:
as §1, §2

Experiment [4] concerns the target human Axl ECD-His protein (human) (UniProt P30530). The experiment in a line: SPR (BIAcore-3000): IgG captured by anti-human IgG, human Axl ECD-His injected.
Experiment [5] addresses human Axl-Fc (human) (UniProt P30530). Nature of the experiment: competition ELISA; human Axl-Fc captured on anti-human IgG Fc plate, blocked ligand Gas6 detected with biotinylated anti-Gas6 and streptavidin-HRP.
The target of experiment [6] is T3, murine Axl ECD-Fc fusion protein (murine; human, UniProt Q00993 19-445).
T3 construct: extracellular domain; also called murine Axl ECD human IgG fusion protein; mouse Axl.Fc; not shown: human IgG Fc
T3 sequence (Q00993 19-445): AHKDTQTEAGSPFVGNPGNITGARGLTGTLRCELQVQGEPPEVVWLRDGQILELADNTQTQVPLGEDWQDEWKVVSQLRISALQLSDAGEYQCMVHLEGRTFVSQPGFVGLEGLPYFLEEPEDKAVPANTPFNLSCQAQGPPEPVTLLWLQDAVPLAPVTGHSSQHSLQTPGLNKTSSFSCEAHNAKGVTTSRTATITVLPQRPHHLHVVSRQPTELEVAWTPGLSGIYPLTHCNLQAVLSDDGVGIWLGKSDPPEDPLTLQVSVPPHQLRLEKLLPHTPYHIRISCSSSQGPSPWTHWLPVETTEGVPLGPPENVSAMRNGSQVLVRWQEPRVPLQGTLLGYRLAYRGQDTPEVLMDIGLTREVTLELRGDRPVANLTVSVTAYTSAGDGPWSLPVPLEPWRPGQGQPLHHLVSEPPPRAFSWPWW
The experiment in a line: SPR (BIAcore-3000): murine Axl ECD-Fc captured by anti-human IgG, anti-Axl Fab injected. How it is done:
Association rates (kₒₙ) and dissociation rates (koff) were calculated using a simple one-to-one Langmuir binding model (BIAcore Evaluation Software version 3.2).

human Axl on the cell surface (HUVEC, A549, H1299, Baf3Axl cells), sequence (P30530 other isoform, or with tags, fused parts or gaps limits assumed): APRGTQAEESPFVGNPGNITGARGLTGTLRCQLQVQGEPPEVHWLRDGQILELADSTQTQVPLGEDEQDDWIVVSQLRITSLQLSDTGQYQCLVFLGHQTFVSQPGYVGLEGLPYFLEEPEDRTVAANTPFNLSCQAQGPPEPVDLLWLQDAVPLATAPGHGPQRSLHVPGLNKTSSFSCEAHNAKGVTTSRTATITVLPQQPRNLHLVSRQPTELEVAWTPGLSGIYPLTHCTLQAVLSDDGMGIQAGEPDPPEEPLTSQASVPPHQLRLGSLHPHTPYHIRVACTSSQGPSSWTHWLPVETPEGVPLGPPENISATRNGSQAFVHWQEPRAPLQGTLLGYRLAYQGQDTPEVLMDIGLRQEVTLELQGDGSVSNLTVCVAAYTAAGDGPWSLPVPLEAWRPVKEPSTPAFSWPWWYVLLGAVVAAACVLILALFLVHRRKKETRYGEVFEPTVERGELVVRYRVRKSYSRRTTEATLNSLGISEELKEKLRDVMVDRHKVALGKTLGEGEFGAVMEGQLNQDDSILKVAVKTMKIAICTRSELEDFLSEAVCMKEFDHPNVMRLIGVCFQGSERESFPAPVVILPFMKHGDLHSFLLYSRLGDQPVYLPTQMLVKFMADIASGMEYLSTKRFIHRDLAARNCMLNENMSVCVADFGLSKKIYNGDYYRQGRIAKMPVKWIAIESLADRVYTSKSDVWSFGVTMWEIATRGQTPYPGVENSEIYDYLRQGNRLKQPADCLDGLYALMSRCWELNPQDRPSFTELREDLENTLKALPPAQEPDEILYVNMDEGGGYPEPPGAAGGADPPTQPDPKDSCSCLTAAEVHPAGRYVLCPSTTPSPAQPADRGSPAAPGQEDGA
human Axl-Fc (human), sequence (P30530 other isoform, or with tags, fused parts or gaps, form in doubt): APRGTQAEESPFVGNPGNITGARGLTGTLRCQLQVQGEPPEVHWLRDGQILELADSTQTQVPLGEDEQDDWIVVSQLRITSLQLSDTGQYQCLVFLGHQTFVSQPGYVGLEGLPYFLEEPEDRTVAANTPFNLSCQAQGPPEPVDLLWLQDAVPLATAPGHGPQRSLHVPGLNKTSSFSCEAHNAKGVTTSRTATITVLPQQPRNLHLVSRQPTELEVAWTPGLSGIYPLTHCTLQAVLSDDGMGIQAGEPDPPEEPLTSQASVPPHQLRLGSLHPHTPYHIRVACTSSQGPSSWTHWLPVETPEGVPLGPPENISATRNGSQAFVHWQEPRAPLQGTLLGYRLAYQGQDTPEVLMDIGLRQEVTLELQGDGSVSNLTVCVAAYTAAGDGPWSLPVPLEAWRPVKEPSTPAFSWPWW

B1: Affinity matured Axl mAb YW327.6S2 (full-length human IgG) (antibody, V domains shown)
VH: EVQLVESGGGLVQPGGSLRLSCAASGFSLSGSWIHWVRQAPGKGLEWVGWINPYRGYAYYADSVKGRFTISADTSKNTAYLQMNSLRAEDTAVYYCAREYSGWGGSSVGYAMDYWGQGTLVTVSS
VL: DIQMTQSPSSLSASVGDRVTITCRASQDVSTAVAWYQQKPGKAPKLLIYSASFLYSGVPSRFSGSGSGTDFTLTISSLQPEDFATYYCQQSYTTPPTFGQGTKVEIK
notes: No sentence ties these to this name, so they are not used; also called YW327.652
B1: the “IC50 (read off the curve)” value was around 0.1 µg/mL in experiment [1] and 0.02 µg/mL in experiment [5]. Further, the binding result in experiment [2] and in experiment [3] was “no binding (tested: concentration not shown)” in each case. The Kd (commonly the equilibrium constant for the complex coming apart) in experiment [4] worked out at 1 nM.

B2: YW327.6S2 Fab fragment (Fab, V domains shown)
VH: EVQLVESGGGLVQPGGSLRLSCAASGFSLSGSWIHWVRQAPGKGLEWVGWINPYRGYAYYADSVKGRFTISADTSKNTAYLQMNSLRAEDTAVYYCAREYSGWGGSSVGYAMDYWGQGTLVTVSS
VL: DIQMTQSPSSLSASVGDRVTITCRASQDVSTAVAWYQQKPGKAPKLLIYSASFLYSGVPSRFSGSGSGTDFTLTISSLQPEDFATYYCQQSYTTPPTFGQGTKVEIK
notes: The result sentence names only the mAb; also called anti-Axl Fab fragment; YW327.652
B2: the affinity in experiment [6], expressed as Kd, was 0.545 nM.

Values taken from patent US20130243753A1 (Genentech, published 2013).
